These results are taken from patent US20090117593A1, “T. Cruzi-derived neurotrophic agents and methods of use therefor” (Tufts University, priority 2006, published 2009).

“Also recorded” adds a separate entry of the source. Like-named read-outs stand apart in the source and are kept apart here.

Common to all, as to format: cell-based
For experiment [1], the system named is neuroblastoma N18 cells. Briefly: Neurite outgrowth assay in N18 cells. Particulars: soluble or immobilized on plastic (500 μg/ml coating), 17 hours. How it is done: 96-well microtiter plates were coated overnight at 4° C. with the TS or peptides or fragments thereof, or with control proteins laminin (Ln) or bovine serum albumin (BSA) at 500 μg/ml. After removing the compounds, the plates were further incubated with 1% BSA for 1 hour at room temperature and immediately used as substratum for PC12 or N18 (Prasad, K., Biol. Rev. Camb. Philos. Soc., 66:431-451 (1991)) cells in serum-free RPMI/0.2% BSA. Neurite outgrowth was measured using a phase-contrast microscope 17 hours later.

For experiment [2], the system named is PC12 cells. Particulars: serum-free RPMI/0.2% BSA, collagen coated dishes, 16-17 hours.
The subject of experiment [3] is PC12 cells. Nature of the experiment: Protection of PC12 cells from apoptosis induced by trophic factor withdrawal (DAPI, TUNEL). Particulars: NGF at 0.5 ng/ml. The source says:
PC12 cells were obtained from ATCC (Manassas, Va. (Accession No. CRL-1721)) and cultured on collagen-coated dishes in RPMI 1640 supplemented with 10% horse serum and 5% fetal bovine serum (Greene, L., and Tishler, A., Proc. Natl. Acad. Sci. USA, 73:2424-2428 (1976)). For differentiation and survival experiments, cells were washed three times in serum-free RPMI/0.2% BSA, plated in the same medium in collagen-coated plastic dishes at 2×10^5/ml, without and with growth factors, TS, recombinant proteins, synthetic peptides, for the time and concentrations indicated in the Figures.
Cell staining with 4,6-diamino-2-phenylindole (DAPI). Cells were fixed with 4% formaldehyde in PBS for 5 minutes, washed with PBS, stained with 10 μg/ml DAPI (Sigma) for 2 minutes, washed with PBS, and visualized under UV light using a fluorescent microscope. About 300-400 cells were examined under the microscope to determine the percentage of apoptotic cells.
Cell DNA nick end labeling (TUNEL) (Gavrieli, Y. et al., J. Cell. Biol., 119:493-501 (1992)) assay was performed using a kit purchased from Boehringer Mannheim as described by the manufacturer.
Protection against apoptosis of PC12 cells in serum-free medium containing a test agent (agent N) (e.g., protection induced by TS, TS fragments, NGF or other growth factors), was calculated by the formula: 100%−[(apoptosis(%) of cells kept in RPMI containing test agent N÷apoptosis (%) of cells kept in RPMI)×100%]. Testing the effect of Wortmannin (Sigma) and LY294002 (Sigma) in inhibiting the neuroprotection of TS was performed following the protocol described by others (Yao, R., and Cooper, G., Science, 267:2003-2006 (1995); D'Mello, et al., J. Neurosci., 17:1548-1560 (1997)). In brief, PC12 cells were switched from growth medium to RPMI without and with TS or various other growth factors. After 24 hours, Wortmannin and LY294002 were added to the cultures. After another 24 hours, cells were examined for apoptosis by the DAPI assay, as above.

B1: TS-Cat-47: recombinant fragment consisting of amino acid residues 79-415 of TS (SEQ ID NO:2) (protein, listed as Trypanosoma cruzi)
chain: MVAIADARYDTSNDNSLIDTVAKYSVDDGETWETQIAIKNSRVSSVSRVVDPTVIVKGNKLYVLVGSYYSSRSYWSSHGDARDWDILLAVGEVTKSTAGGKITASIKWGSPVSLKKFFPAEMEGMHTNQFLGGAGVAIVASNGNLVYPVQVTNKKKQVFSKIFYSEDDGKTWKFGKGRSDFGCSEPVALEWEGKLIINTRVDWKRRLVYESSDMEKPWVEAVGTVSRVWGPSPKSNQPGSQSSFTAVTIEGMRVMLFTHPLNFKGRWLRDRLNLWLTDNQRIYNVGQVSIGDENSAYSSVLYKDDKLYCLHEINTDEVYSLVFARLVGELRIIKSVL
Take B1: in experiment [1], the “neurite outgrowth in N18 cells” value was “inactive in stimulating neurite outgrowth; also recorded: did not promote neurite outgrowth”.

B2: cruzipain: T. cruzi protease (protein, UniProt P25779 123-467, looked up)
Cruzipain: APAAVDWRARGAVTAVKDQGQCGSCWAFSAIGNVECQWFLAGHPLTNLSEQMLVSCDKTDSGCSGGLMNNAFEWIVQENNGAVYTEDSYPYASGEGISPPCTTSGHTVGATITGHVELPQDEAQIAAWLAVNGPVAVAVDASSWMTYTGGVMTSCVSEQLDHGVLLVGYNDSAAVPYWIIKNSWTTQWGEEGYIRIAKGSNQCLVKEEASSAVVGGPGPTPEPTTTTTTSAPGPSPSYFVQMSCTDAACIVGCENVTLPTGQCLLTTSGVSAIVTCGAETLTEEVFLTSTHCSGPSVRSSVPLNKCNRLLRGSVEFFCGSSSSGRLADVDRQRRHQPYHSRHRRL
In the case of B2, the “neurite outgrowth in PC12 cells” value in experiment [2] is given as “did not induce neurite extension”; in experiment [2] (listed as cruzipan), “ineffective”.

B3: NGF: Mouse 7S nerve growth factor (protein)
chain: SSTHPVFHMGEFSVCDSVSVWVGDKTTATDIKGKEVTVLAEVNINNSVFRQYFFETKCRASNPVESGCRGIDSKHWNSYCTTTHTFVKALTTDEKQAAWRFIRIDTACVCVLSRKATRRG
Consider B3, for which the “neurite outgrowth in PC12 cells” value in experiment [2] is recorded as “induces neurite outgrowth”. Also, the “PC12 cells protected from apoptotic death” value in experiment [3] is 18%.
